From patent publication US20110142849A1

Molecular target: recombinant human Pcsk9 (aa 31-692) with C-terminal his6 tag (human) (UniProt Q8NBP7)
Assay: TR-FRET, disruption of hLDL-R-Eu and hPcsk9-AF

Sequence of recombinant human Pcsk9 (aa 31-692) with C-terminal his6 tag (human) (Q8NBP7 other isoform, or with tags, fused parts or gaps limits assumed, form in doubt): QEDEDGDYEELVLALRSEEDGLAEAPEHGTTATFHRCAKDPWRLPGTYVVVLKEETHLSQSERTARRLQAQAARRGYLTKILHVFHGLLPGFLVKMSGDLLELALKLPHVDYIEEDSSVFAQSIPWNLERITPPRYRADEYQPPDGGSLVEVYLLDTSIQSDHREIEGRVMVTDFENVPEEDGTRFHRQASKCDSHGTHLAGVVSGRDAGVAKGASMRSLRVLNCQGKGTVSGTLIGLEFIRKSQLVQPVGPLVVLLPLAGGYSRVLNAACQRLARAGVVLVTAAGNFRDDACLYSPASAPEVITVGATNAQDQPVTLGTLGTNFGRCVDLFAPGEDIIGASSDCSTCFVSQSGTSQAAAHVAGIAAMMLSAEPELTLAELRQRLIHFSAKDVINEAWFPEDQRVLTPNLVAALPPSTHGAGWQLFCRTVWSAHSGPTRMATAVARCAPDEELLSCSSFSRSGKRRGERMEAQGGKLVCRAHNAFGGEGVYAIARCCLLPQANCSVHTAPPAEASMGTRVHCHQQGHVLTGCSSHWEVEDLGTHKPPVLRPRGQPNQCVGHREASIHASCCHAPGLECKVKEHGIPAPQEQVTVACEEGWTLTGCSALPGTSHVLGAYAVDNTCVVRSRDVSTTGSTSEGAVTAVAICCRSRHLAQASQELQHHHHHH

IC50: 2500 nM
Substance: EGF-A peptide
